The values that follow come from patent publication US8227193 (University of California, dated 2012).

The test deals with T1, human p52 DNA-binding domain (p52 DBD) (human, UniProt Q00653 1-340).
T1 construct: Expressed in E. coli from pET11a, without a poly-His tag; also called p52 RHD; NF-kB2/p52 Rel homology domain
T1 sequence: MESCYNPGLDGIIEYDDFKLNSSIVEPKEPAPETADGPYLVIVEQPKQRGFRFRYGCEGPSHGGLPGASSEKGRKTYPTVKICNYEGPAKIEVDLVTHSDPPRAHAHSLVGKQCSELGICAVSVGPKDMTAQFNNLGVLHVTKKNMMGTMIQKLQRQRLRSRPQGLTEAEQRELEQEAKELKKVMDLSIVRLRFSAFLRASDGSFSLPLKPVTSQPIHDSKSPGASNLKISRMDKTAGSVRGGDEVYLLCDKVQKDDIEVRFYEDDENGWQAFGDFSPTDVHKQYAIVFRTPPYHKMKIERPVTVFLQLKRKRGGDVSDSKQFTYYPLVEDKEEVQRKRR
The test can be described thus: co-refolding from 7 M urea (1:1.2 molar ratio), Ni-affinity capture through the His tag of RelB DBD (uncomplexed p52 DBD flows through), size exclusion; both proteins confirmed by western blotting. Here is the method:
His-RelB DBD and p52 DBD that had been purified as described above were mixed together in 1:1.2 molar ratio (i.e., with excess p52 DBD) and diluted to ~0.4 mg/ml concentration in a denaturing buffer B (7 M urea, 0.5 M NaCl, 20 mM Tris pH 7.5, 5 mM DTT, 10% glycerol). The denatured protein mixture (100 ml total volume that contained 40 mg total protein) was refolded by slowly removing urea by dialysis. The sample was subjected to dialysis against 2 L buffer C (buffer C was the same as buffer B except it lacked urea) for 6 hours. The dialysis step was repeated two more times. After dialysis, the refolded heterodimer was loaded onto the Ni-affinity column. Excess, uncomplexed p52 DBD flows through the column because it has no poly-His tag to bind Ni-affinity matrix. The heterodimer was eluted with imidazole. The eluate was concentrated and further purified using size exclusion chromatography (Superdex 200, Pharmacia). Fractions containing the heterodimer were pooled and concentrated. The presence of both proteins was confirmed by standard western blotting.

B1: poly histidine tagged murine RelB DNA-binding domain (His-RelB DBD) (other)
chain: MPSRRAARESAPELGALGSSDLSSLSLTVSRTTDELEIIDEYIKENGFGLVGTQLSEMPRLVPRGPASLSSVTLGPAAPPPPATPSWSCTLGRLVSPGPCPRPYLVITEQPKQRGMRFRYECEGRSAGSILGESSTEASKTQPAIELRDCGGLREVEVTACLVWKDWPHRVHPHSLVGKDCTDGVCRVRLRPHVSPRHSFNNLGIQCVRKKEIEAAIERKIQLGIDPYNAGSLKNHQEVDMNVVRICFQASYRDQQGHLHRMDPILSEPVYDKKSTNTSELRICRINKESGPCTGGEELYLLCDKVQKEDISVVFSTASWEGRADFSQADVHRQIAIVFKTPPYEDLEISEPVTVNVFLQRLTDGVCSEPLPFTYLPRDHDSYGVDKKRKRGLPDVLGEL
notes: Expressed in E. coli from pET15b as a poly histidine fusion protein; also called RelB RHD; RelB Rel homology domain; not shown: poly-histidine tag from vector pET15b (Novagen)
Consider B1, for which the binding result is “binds”.
